One data set addresses c-Src SH2. The data set can be described thus: SH2 binding enrichment of the phosphorylated peptide, bacterial display (enrichment ratio); higher = better substrate or ligand; peptides without Tyr show the background.
For the next data set, the target named is Grb2 SH2 (UniProt P62993). The data set is described as above.
In a further data set the target is SHP2-C SH2. Described as above.
The test system of another data set is c-Abl (mouse). The data set can be described thus: phosphorylation enrichment, bacterial display (enrichment ratio); higher = better substrate or ligand; peptides without Tyr show the background.
The target in another data set is Fes (UniProt P07332). Described as above.
Sequence of Fes (P07332 whole entry, looked up): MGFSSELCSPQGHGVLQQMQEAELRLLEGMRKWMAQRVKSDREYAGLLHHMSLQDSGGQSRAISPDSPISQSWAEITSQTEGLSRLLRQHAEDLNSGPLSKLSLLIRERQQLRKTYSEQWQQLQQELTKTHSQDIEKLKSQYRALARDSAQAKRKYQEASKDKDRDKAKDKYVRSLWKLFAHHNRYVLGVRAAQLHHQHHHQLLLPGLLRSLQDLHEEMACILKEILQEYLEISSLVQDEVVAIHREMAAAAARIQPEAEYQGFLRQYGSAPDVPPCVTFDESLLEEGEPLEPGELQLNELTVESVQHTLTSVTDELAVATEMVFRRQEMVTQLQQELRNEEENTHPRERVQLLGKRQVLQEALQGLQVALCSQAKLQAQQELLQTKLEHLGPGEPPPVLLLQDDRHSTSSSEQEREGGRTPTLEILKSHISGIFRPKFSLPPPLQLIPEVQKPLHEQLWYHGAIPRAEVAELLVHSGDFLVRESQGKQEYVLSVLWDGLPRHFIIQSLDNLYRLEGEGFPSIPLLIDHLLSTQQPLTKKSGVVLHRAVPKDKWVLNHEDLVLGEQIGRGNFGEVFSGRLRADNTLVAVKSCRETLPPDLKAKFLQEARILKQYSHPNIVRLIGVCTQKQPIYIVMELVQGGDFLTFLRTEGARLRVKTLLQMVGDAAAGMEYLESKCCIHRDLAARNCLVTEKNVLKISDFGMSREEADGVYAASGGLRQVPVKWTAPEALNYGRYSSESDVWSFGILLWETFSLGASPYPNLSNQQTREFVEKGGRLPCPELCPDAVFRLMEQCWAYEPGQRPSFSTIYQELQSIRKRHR
In the next data set the test system is c-Src. The description is as above.
The next data set deals with Fer (mouse). The description is as above.
In the next data set the test system is AncSZ. Described as above.
The next data set deals with Fyn (UniProt P06241). The description is as above.
Sequence of Fyn (P06241 whole entry, looked up): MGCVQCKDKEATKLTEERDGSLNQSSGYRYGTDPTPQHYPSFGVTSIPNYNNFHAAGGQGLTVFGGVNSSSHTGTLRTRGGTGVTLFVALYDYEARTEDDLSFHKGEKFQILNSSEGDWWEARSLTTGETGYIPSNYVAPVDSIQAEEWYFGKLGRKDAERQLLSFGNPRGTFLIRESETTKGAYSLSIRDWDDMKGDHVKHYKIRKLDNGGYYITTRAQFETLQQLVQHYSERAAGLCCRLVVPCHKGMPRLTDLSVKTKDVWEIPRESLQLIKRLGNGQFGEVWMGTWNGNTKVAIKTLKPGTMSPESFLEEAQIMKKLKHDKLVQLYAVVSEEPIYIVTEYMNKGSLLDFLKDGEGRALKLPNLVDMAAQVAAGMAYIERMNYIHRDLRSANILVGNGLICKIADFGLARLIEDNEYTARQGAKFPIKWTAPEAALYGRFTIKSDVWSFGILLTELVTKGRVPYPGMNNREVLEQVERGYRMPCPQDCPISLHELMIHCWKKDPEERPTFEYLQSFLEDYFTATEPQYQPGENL
A further data set addresses EPHB1 (UniProt P54762). Described as above.
The target of the next data set is EPHB2 (UniProt P29323). The data set is described as above.
Sequence of EPHB2 (P29323 whole entry, looked up): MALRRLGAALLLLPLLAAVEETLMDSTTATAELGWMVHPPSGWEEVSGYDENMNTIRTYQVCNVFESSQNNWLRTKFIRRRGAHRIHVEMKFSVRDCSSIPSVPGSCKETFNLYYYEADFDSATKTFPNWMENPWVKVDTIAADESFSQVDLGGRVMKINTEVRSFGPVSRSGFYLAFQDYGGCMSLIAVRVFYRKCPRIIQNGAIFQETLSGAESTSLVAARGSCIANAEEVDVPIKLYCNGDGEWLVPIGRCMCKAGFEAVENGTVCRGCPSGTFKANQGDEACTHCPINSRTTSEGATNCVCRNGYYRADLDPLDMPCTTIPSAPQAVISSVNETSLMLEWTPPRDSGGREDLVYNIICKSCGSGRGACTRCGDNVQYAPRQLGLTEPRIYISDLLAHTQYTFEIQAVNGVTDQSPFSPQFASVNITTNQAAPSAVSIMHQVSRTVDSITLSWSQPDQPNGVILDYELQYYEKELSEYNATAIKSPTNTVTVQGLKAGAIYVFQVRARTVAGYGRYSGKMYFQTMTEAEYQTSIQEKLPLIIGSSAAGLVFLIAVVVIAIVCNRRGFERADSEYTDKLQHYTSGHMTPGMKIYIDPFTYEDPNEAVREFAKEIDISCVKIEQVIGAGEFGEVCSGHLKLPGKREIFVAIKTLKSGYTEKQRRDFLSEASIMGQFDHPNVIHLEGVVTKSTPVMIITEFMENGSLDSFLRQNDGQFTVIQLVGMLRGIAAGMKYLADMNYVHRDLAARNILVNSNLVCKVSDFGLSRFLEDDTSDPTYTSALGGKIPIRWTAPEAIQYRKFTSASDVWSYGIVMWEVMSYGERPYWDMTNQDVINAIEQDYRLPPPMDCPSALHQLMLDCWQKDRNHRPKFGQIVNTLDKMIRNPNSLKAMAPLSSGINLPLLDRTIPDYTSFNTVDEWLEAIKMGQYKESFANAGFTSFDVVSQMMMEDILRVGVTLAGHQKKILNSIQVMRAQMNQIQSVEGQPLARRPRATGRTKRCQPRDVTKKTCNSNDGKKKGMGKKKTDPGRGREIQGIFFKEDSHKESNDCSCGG
The target of the next data set is FGFR3 (UniProt P22607). The data set is described as above.
Sequence of FGFR3 (P22607 whole entry, looked up): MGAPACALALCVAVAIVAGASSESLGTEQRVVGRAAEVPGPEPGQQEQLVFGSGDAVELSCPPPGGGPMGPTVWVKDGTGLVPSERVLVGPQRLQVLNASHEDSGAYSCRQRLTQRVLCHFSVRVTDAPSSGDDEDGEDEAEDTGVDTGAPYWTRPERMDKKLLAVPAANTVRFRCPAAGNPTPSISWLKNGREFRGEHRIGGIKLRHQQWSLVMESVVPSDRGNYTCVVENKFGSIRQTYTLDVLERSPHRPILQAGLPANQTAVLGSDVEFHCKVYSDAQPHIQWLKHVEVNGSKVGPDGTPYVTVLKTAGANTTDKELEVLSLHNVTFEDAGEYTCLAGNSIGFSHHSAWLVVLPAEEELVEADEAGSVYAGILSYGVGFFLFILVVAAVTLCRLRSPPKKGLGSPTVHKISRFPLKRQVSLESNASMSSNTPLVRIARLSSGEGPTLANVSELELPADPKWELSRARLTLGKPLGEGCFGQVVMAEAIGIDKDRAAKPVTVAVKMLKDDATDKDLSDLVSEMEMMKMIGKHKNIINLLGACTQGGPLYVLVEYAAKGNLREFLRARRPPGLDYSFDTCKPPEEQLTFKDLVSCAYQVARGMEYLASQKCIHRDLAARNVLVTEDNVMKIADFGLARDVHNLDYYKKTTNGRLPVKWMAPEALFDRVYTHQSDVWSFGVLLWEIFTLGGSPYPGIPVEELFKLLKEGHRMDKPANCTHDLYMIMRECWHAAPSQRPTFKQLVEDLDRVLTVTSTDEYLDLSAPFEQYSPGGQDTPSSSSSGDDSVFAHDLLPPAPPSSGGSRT
In the next data set the target is Jak2 (UniProt O60674). The description is as above.
The target of another data set is FGFR1 (UniProt P11362). Described as above.
In a further data set the target is MERTK (UniProt Q12866). The description is as above.
Sequence of MERTK (Q12866 whole entry, looked up): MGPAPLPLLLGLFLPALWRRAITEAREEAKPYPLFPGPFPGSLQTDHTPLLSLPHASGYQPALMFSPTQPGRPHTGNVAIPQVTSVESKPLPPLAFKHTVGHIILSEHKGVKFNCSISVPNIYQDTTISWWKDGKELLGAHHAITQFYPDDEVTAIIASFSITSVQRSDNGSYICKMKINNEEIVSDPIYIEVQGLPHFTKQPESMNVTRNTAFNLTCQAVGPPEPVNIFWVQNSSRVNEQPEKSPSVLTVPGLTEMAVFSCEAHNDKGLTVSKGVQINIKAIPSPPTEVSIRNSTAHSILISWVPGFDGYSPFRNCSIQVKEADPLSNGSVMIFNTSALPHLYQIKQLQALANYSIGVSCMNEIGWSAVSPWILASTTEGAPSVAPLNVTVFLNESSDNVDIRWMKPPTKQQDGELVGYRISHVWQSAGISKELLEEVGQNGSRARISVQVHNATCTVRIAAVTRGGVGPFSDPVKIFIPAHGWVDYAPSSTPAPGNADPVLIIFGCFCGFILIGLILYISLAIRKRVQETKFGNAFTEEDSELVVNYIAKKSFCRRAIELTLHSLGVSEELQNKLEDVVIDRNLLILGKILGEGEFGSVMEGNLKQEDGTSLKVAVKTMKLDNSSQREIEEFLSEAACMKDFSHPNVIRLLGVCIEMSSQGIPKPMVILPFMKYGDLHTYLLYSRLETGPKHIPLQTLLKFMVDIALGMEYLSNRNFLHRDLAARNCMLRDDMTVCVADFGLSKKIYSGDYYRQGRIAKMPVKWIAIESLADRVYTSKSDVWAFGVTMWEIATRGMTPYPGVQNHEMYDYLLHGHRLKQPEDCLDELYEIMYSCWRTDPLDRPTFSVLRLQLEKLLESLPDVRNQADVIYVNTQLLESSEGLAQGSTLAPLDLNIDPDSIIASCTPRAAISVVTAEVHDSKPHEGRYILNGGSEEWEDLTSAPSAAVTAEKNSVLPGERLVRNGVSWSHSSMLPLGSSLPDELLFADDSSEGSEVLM
The next data set addresses Hck (UniProt P08631). The description is as above.
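Wherever SH2 binding enrichment of the phosphorylated peptide, bacterial display is given: peptide library displayed on the E. coli surface as eCPX fusions, selected cells deep-sequenced, score is each peptide's frequency after selection divided by its frequency in the input.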
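Wherever phosphorylation enrichment, bacterial display is given: 11-residue human phosphosite peptides and single-mutation variants displayed on the E. coli surface, counted by deep sequencing, each peptide's frequency after selection divided by its frequency in the unselected input library; frequency after pTyr selection over input frequency; kinase dosed for 20-30% of maximal phosphorylation in three min.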

Sequence of Grb2 SH2 (P62993 whole entry, looked up): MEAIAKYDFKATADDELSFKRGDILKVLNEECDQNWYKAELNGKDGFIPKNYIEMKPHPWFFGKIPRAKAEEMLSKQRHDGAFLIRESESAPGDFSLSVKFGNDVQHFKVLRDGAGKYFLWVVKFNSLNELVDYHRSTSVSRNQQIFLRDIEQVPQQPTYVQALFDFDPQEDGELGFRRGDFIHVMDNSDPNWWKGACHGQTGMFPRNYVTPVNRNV
Sequence of Hck (P08631 whole entry, looked up, the tested form may be a part): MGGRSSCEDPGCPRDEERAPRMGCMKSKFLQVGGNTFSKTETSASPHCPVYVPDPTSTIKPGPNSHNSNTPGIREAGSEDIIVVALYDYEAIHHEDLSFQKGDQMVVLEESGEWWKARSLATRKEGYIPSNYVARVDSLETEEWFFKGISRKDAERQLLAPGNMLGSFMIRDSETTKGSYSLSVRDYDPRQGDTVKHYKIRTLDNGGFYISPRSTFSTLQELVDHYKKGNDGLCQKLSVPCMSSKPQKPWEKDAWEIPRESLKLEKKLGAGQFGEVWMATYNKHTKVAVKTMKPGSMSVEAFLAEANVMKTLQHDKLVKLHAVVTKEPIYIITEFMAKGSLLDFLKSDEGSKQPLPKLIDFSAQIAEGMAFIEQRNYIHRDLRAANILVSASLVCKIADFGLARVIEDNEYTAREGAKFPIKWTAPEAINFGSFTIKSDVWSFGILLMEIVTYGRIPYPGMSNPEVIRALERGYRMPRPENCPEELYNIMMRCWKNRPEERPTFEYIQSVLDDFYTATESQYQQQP

For the sequence HNLDFYKETTN [FGFR3_Y648_K650E_YF], the SH2 binding enrichment is 0.995 with c-Src SH2, 0.841 with Grb2 SH2 and 1.39 with SHP2-C SH2. Further, the phosphorylation enrichment was determined as 1.14 with c-Abl (mouse); 1.5 with Fes; 1.14 in the data set with c-Src; 0.656 with Fer (mouse); 1.23 with AncSZ; 0.731 with Fyn. The phosphorylation enrichment with EPHB1 was found to be 0.891; in the data set with EPHB2, 0.496; with FGFR3, 0.915; in the data set with Jak2, 1.48; with FGFR1, 0.645; with MERTK, 0.662. Besides, the phosphorylation enrichment with Hck was found to be 0.53.
For the sequence HNQDGYSFLSR [LDLR_Y845_P848L_YF], the SH2 binding enrichment came to 6.05 with c-Src SH2, 0.784 with Grb2 SH2 and 2.83 with SHP2-C SH2. Also, the phosphorylation enrichment in the data set on c-Abl (mouse) is 0.635; with Fes it was 0.795; in the data set with c-Src, 0.435; with Fer (mouse) it was 0.427; in the data set on AncSZ it was 0.867; in the data set with Fyn, 0.654. The phosphorylation enrichment in the data set with EPHB1 is 0.837; with EPHB2 it was 1; with FGFR3, 0.657; with Jak2 it was 1.25; with FGFR1 it was 0.765; in the data set with MERTK, 0.914. For the same sequence, the phosphorylation enrichment with Hck was found to be 0.841.
For the sequence HNVAIYEGFAL [ACTC1_Y168_P166A_YF], the SH2 binding enrichment turned out to be 0.509 with c-Src SH2, 0.877 with Grb2 SH2 and 1 with SHP2-C SH2. In addition, the phosphorylation enrichment in the data set with c-Abl (mouse) worked out at 9.06; with Fes it was 1.3; with c-Src it was 9.03; in the data set on Fer (mouse) it was 17; in the data set with AncSZ, 1.28; in the data set with Fyn it was 13.3. Moreover, the phosphorylation enrichment in the data set with EPHB1 is 11.1; with EPHB2, 11.2; with FGFR3, 0.781; with Jak2, 0.972; in the data set with FGFR1, 0.56; with MERTK, 8.57. Besides, in the data set with Hck, the phosphorylation enrichment was 9.95.
As for HPFNSYTFPRL [PAK5_Y316_S312P_YF], the SH2 binding enrichment with c-Src SH2 worked out at 1; with Grb2 SH2 it was 0.642; in the data set with SHP2-C SH2, 1.35. The phosphorylation enrichment in the data set with c-Abl (mouse) came out at 1.05; with Fes, 0.957; in the data set with c-Src, 0.602; with Fer (mouse), 0.461; in the data set with AncSZ it was 1.3; with Fyn, 1.19. Besides, the phosphorylation enrichment with EPHB1 was 0.683; in the data set with EPHB2, 0.64; with FGFR3, 0.786; in the data set with Jak2 it was 0.995; in the data set with FGFR1, 0.531; with MERTK, 1.41. Moreover, the phosphorylation enrichment in the data set with Hck stood at 0.474.
In the case of HQPGEYIFHAE [FLT3_Y416], the SH2 binding enrichment with c-Src SH2 turned out to be 0.445; with Grb2 SH2 it was 0.668; with SHP2-C SH2, 0.743. In addition, the phosphorylation enrichment with c-Abl (mouse) stood at 1.11; with Fes it was 1.29; with c-Src, 0.852; in the data set on Fer (mouse), 0.795; in the data set with AncSZ, 1.77; in the data set with Fyn, 0.915. In addition, the phosphorylation enrichment with EPHB1 is 0.887; with EPHB2, 1.12; in the data set with FGFR3, 1.28; with Jak2, 1.29; with FGFR1 it was 0.819; with MERTK, 0.74. Moreover, the phosphorylation enrichment in the data set with Hck came to 1.21.
For the sequence HRGSLYLAIEF [TEK_Y899_Y897S_YF], the SH2 binding enrichment is 0.536 with c-Src SH2, 0.956 with Grb2 SH2 and 0.683 with SHP2-C SH2. Further, the phosphorylation enrichment in the data set with c-Abl (mouse) is 1.19; with Fes, 1.55; with c-Src it was 0.489; in the data set on Fer (mouse), 0.748; in the data set with AncSZ it was 1.23; with Fyn it was 0.538. The phosphorylation enrichment in the data set with EPHB1 came to 0.641; in the data set with EPHB2, 0.491; with FGFR3, 0.902; in the data set with Jak2 it was 1.28; with FGFR1, 0.589; with MERTK, 0.538. For the same sequence, the phosphorylation enrichment with Hck was 0.48.
As for HSGIFYKPESL [L2HGDH_Y103_YF], the SH2 binding enrichment in the data set with c-Src SH2 came to 0.507; with Grb2 SH2 it was 0.641; in the data set with SHP2-C SH2 it was 0.831. The phosphorylation enrichment with c-Abl (mouse) came out at 3.79; with Fes, 1.82; with c-Src it was 1.45; in the data set with Fer (mouse) it was 1.05; in the data set on AncSZ it was 1.34; in the data set with Fyn, 0.642. Moreover, the phosphorylation enrichment was determined as 0.793 in the data set with EPHB1; 1.11 with EPHB2; 0.934 in the data set with FGFR3; 2.08 in the data set with Jak2; 1.11 with FGFR1; 0.934 with MERTK. Moreover, in the data set with Hck, the phosphorylation enrichment is 0.704.
For IEDNKYTAREG [HCK_Y411_E410K], the SH2 binding enrichment with c-Src SH2 is 0.573; with Grb2 SH2, 0.924; in the data set with SHP2-C SH2 it was 0.828. Besides, the phosphorylation enrichment with c-Abl (mouse) came to 0.756; with Fes it was 1.03; in the data set on c-Src it was 0.506; with Fer (mouse) it was 0.392; in the data set with AncSZ, 0.926; in the data set with Fyn it was 0.507. For the same sequence, the phosphorylation enrichment with EPHB1 came to 0.588; with EPHB2 it was 0.543; in the data set with FGFR3, 0.545; with Jak2, 0.788; with FGFR1, 0.558; with MERTK, 0.356. Besides, in the data set with Hck, the phosphorylation enrichment amounted to 0.469.

Source of the values: the supplement of paper PMC10065799, “High-throughput profiling of sequence recognition by tyrosine kinases and SH2 domains using bacterial peptide display” (eLife, 2023).
